Laboratory results from the supplement of paper PMC6757056.
± gives the standard deviation of the averaged measurements.

B1: library; a variant is named by its letters at N, in order (parent)
chain: GCUGUCACCGGUGCUUGGUACGUUAUAUUCAGCCGGUCUGAUGAGUCUNNNNNNAGACGAAACAGC

Experiments:
[1] = variants of: B1; assay: normalized RNA/DNA level without ligand (relative to sTRSVctl = 100) (log10 (% of sTRSVctl)); HEK293T overexpressing SLC46A1; higher = less ribozyme self-cleavage, higher mRNA level; settings: without (6R,S)-folinic acid; ligand present: no
In short: (§1)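 Library plasmids carrying ribozyme switches linked to mCherry, or to eGFP in some ligand experiments, were transfected into HEK293T at 4 µg per 6-well well, with any ligand added 1 h earlier. Seventy-two hours on, total RNA was extracted with EDTA and reverse-transcribed, amplified, barcoded and sequenced. RNA level was RNA over DNA reads normalized to a spiked-in non-cleaving sequence or to the top sequences, then scaled and log-transformed. The top set was 25 sequences, the transform was ×100 and log10, and sequences needed ≥100 DNA reads.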

[2] = variants of: B1; assay: normalized RNA/DNA level with ligand (relative to sTRSVctl = 100) (log10 (% of sTRSVctl)); HEK293T overexpressing SLC46A1; ligand concentration (+) RNA-Seq: 6 mM; higher = less ribozyme self-cleavage, higher mRNA level; settings: with (6R,S)-folinic acid; ligand present: yes
In short: as §1

| Variant | normalized RNA/DNA level without ligand (log10) [1] | normalized RNA/DNA level with ligand (log10) [2] |
| --- | --- | --- |
| GCUGUCACCGGUGCUUGGUACGUUAUAUUCAGCCGGUCUGAUGAGUCUGAUCGUAGACGAAACAGC | 2.02 ± 9.8e-05 | 2.02 ± 0.052 |
| GCUGUCACCGGUGCUUGGUACGUUAUAUUCAGCCGGUCUGAUGAGUCUGAUCGGAGACGAAACAGC | 2.084 ± 0.015 | 2.07 ± 0.04 |
| GCUGUCACCGGUGCUUGGUACGUUAUAUUCAGCCGGUCUGAUGAGUCUGAUCGCAGACGAAACAGC | 1.998 ± 0.016 | 2.032 ± 0.014 |
| GCUGUCACCGGUGCUUGGUACGUUAUAUUCAGCCGGUCUGAUGAGUCUGAUCGAAGACGAAACAGC | 2.033 ± 0.008 | 2.02 ± 0.036 |
| GCUGUCACCGGUGCUUGGUACGUUAUAUUCAGCCGGUCUGAUGAGUCUGAUCUCAGACGAAACAGC | 2.0583 ± 0.00073 | 1.99 ± 0.035 |
| GCUGUCACCGGUGCUUGGUACGUUAUAUUCAGCCGGUCUGAUGAGUCUGAUCUGAGACGAAACAGC | 2.008 ± 0.013 | 2.032 ± 0.0047 |
| GCUGUCACCGGUGCUUGGUACGUUAUAUUCAGCCGGUCUGAUGAGUCUGAUCUAAGACGAAACAGC | 2.03 ± 0.024 | 2.027 ± 0.02 |
| GCUGUCACCGGUGCUUGGUACGUUAUAUUCAGCCGGUCUGAUGAGUCUGAUCUUAGACGAAACAGC | 2.031 ± 0.0082 | 2.02 ± 0.083 |
| GCUGUCACCGGUGCUUGGUACGUUAUAUUCAGCCGGUCUGAUGAGUCUGAUCCGAGACGAAACAGC | 2.0564 ± 0.0019 | 2.05 ± 0.063 |
| GCUGUCACCGGUGCUUGGUACGUUAUAUUCAGCCGGUCUGAUGAGUCUGAUCCAAGACGAAACAGC | 2.034 ± 0.0061 | 2.02 ± 0.039 |
| GCUGUCACCGGUGCUUGGUACGUUAUAUUCAGCCGGUCUGAUGAGUCUGAUCCCAGACGAAACAGC | 2.06 ± 0.033 | 2.0517 ± 0.00022 |
| GCUGUCACCGGUGCUUGGUACGUUAUAUUCAGCCGGUCUGAUGAGUCUGAUCCUAGACGAAACAGC | 2.066 ± 0.02 | 2.06 ± 0.053 |
| GCUGUCACCGGUGCUUGGUACGUUAUAUUCAGCCGGUCUGAUGAGUCUCAUCCCAGACGAAACAGC | 2.063 ± 0.0042 | 2.041 ± 0.011 |
| GCUGUCACCGGUGCUUGGUACGUUAUAUUCAGCCGGUCUGAUGAGUCUCAUCCGAGACGAAACAGC | 2.083 ± 0.013 | 2.05 ± 0.028 |
| GCUGUCACCGGUGCUUGGUACGUUAUAUUCAGCCGGUCUGAUGAGUCUCAUCCAAGACGAAACAGC | 2.028 ± 0.006 | 1.99 ± 0.036 |
| GCUGUCACCGGUGCUUGGUACGUUAUAUUCAGCCGGUCUGAUGAGUCUCAUCCUAGACGAAACAGC | 2.06 ± 0.013 | 2.08 ± 0.058 |
| GCUGUCACCGGUGCUUGGUACGUUAUAUUCAGCCGGUCUGAUGAGUCUUAUCGAAGACGAAACAGC | 1.927 ± 0.0098 | 2 ± 0.028 |
| GCUGUCACCGGUGCUUGGUACGUUAUAUUCAGCCGGUCUGAUGAGUCUUAUCGUAGACGAAACAGC | 1.947 ± 0.0084 | 2.01 ± 0.038 |
| GCUGUCACCGGUGCUUGGUACGUUAUAUUCAGCCGGUCUGAUGAGUCUUAUCGCAGACGAAACAGC | 2.014 ± 0.0075 | 2.03 ± 0.043 |
| GCUGUCACCGGUGCUUGGUACGUUAUAUUCAGCCGGUCUGAUGAGUCUCAUCGUAGACGAAACAGC | 2.05 ± 0.021 | 2.02 ± 0.025 |
| GCUGUCACCGGUGCUUGGUACGUUAUAUUCAGCCGGUCUGAUGAGUCUCAUCGGAGACGAAACAGC | 1.99 ± 0.024 | 2.02 ± 0.026 |

| Variant | normalized RNA/DNA level without ligand (log10) [1] | normalized RNA/DNA level with ligand (log10) [2] |
| --- | --- | --- |
| GCUGUCACCGGUGCUUGGUACGUUAUAUUCAGCCGGUCUGAUGAGUCUCAUCGAAGACGAAACAGC | 2.045 ± 0.0027 | 2.06 ± 0.026 |
| GCUGUCACCGGUGCUUGGUACGUUAUAUUCAGCCGGUCUGAUGAGUCUCAUCUAAGACGAAACAGC | 2.05 ± 0.022 | 2.074 ± 0.012 |
| GCUGUCACCGGUGCUUGGUACGUUAUAUUCAGCCGGUCUGAUGAGUCUCAUCUUAGACGAAACAGC | 2.034 ± 0.0024 | 2 ± 0.038 |
| GCUGUCACCGGUGCUUGGUACGUUAUAUUCAGCCGGUCUGAUGAGUCUCAUCUGAGACGAAACAGC | 2.03 ± 0.032 | 2.02 ± 0.025 |
| GCUGUCACCGGUGCUUGGUACGUUAUAUUCAGCCGGUCUGAUGAGUCUUAUGAAAGACGAAACAGC | 1.873 ± 0.016 | 1.98 ± 0.023 |
| GCUGUCACCGGUGCUUGGUACGUUAUAUUCAGCCGGUCUGAUGAGUCUCAUGACAGACGAAACAGC | 1.98 ± 0.024 | 2 ± 0.012 |
| GCUGUCACCGGUGCUUGGUACGUUAUAUUCAGCCGGUCUGAUGAGUCUAAUCCCAGACGAAACAGC | 2.023 ± 0.003 | 2 ± 0.043 |
| GCUGUCACCGGUGCUUGGUACGUUAUAUUCAGCCGGUCUGAUGAGUCUAAUCCGAGACGAAACAGC | 1.969 ± 0.014 | 2.02 ± 0.055 |
| GCUGUCACCGGUGCUUGGUACGUUAUAUUCAGCCGGUCUGAUGAGUCUAAUCGAAGACGAAACAGC | 1.974 ± 0.019 | 2 ± 0.029 |
| GCUGUCACCGGUGCUUGGUACGUUAUAUUCAGCCGGUCUGAUGAGUCUAAUCGUAGACGAAACAGC | 1.99 ± 0.0073 | 2.013 ± 0.0078 |
| GCUGUCACCGGUGCUUGGUACGUUAUAUUCAGCCGGUCUGAUGAGUCUGAUCAUAGACGAAACAGC | 2.023 ± 0.008 | 2.02 ± 0.026 |
| GCUGUCACCGGUGCUUGGUACGUUAUAUUCAGCCGGUCUGAUGAGUCUUAUCUGAGACGAAACAGC | 1.878 ± 0.017 | 2 ± 0.023 |
| GCUGUCACCGGUGCUUGGUACGUUAUAUUCAGCCGGUCUGAUGAGUCUUAUCUUAGACGAAACAGC | 2.007 ± 0.005 | 2.05 ± 0.021 |
| GCUGUCACCGGUGCUUGGUACGUUAUAUUCAGCCGGUCUGAUGAGUCUUAUCUCAGACGAAACAGC | 2.053 ± 0.018 | 2.03 ± 0.027 |
| GCUGUCACCGGUGCUUGGUACGUUAUAUUCAGCCGGUCUGAUGAGUCUUAUCUAAGACGAAACAGC | 1.987 ± 0.0076 | 2.03 ± 0.028 |
| GCUGUCACCGGUGCUUGGUACGUUAUAUUCAGCCGGUCUGAUGAGUCUUAUCCCAGACGAAACAGC | 2.047 ± 0.0027 | 2.01 ± 0.042 |
| GCUGUCACCGGUGCUUGGUACGUUAUAUUCAGCCGGUCUGAUGAGUCUUAUCCAAGACGAAACAGC | 1.979 ± 0.0079 | 2.001 ± 0.0084 |
| GCUGUCACCGGUGCUUGGUACGUUAUAUUCAGCCGGUCUGAUGAGUCUUAUCCUAGACGAAACAGC | 2.009 ± 0.0051 | 2 ± 0.048 |
| GCUGUCACCGGUGCUUGGUACGUUAUAUUCAGCCGGUCUGAUGAGUCUAAUCUCAGACGAAACAGC | 2.068 ± 0.011 | 2.04 ± 0.034 |
| GCUGUCACCGGUGCUUGGUACGUUAUAUUCAGCCGGUCUGAUGAGUCUAAUCUGAGACGAAACAGC | 1.958 ± 0.0061 | 2.04 ± 0.048 |
